In US8513188B2, “Formulations comprising cyclic compounds” (priority 2006, dated 2013):

How the values were obtained:
[1] = Dissolution of protein Rantes in organic medium (DCM/MeOH), HPLC of supernatant; format: physicochemical; details: for presence of protein in HPLC trace of supernatant: centrifuged
Procedure: Two samples of 0.2 mg each of the folded protein Rantes were taken. One sample was used as standard and dissolved in a fixed volume (300 ul) of water/acetonitrile 50% v/v and 30 ul where injected onto HPLC (FIG. 6, HPLC section A) .
The second sample was suspended in a mixture of DCM/MeOH 70%30% VN, (300 ul). The suspension with solid particles was centrifuged and the surnatant injected onto HPLC volume (30 ul).
Then, 2.0 mg of Nonactine were added and the mixture was vortexed. […] Then, the mixture was centrifuged and 30 ul of the supernatant were injected onto HPLC. […] In the HPLC section C the protein has a different retention time (early elution) from the standard in section A. This phenomenon could be explained by the high percentage of organic solvents (like CH2Cl2 depicted in the figure) that carried through the protein complex with nonactine causing early elution.

[2] = dose 2: 2.6 mg desalted human insulin + 60 mg 18-crown-6 in about 310 ul mixture
Procedure: Dose 2: 2.6 mg of desalted human insulin with TFA counter-ions are mixed with 60 mg of 18-crown-6. To these solids, 250 μl of a mixture is added, the mixture being composed of 200 μl of a 50% mixture of Propylen glycole and 50% glycerol, 200 mg of mono-decanoyl-glycerol and 100 μl of Cremofor EL. The final volume is approximately 310 μl.

Caco-2 cells [3] = details: insulin at same concentration in physiological buffer, without formulation agent and organic vehicle
Procedure: Should insulin pass through the Caco-2 cell lines, it is found in the receiving chamber.
Insulin Concentration: 3 mg in 125 μl of olive oil/Peg, 92%/8%, v/v
Vehicle: olive oil/Peg (esaethylenglycol)
Positive control: Ibuprofen: 1 mg in 125 μl physiological buffer.
After vortex, 50 μl of the final mixture are added to the caco-2 cell well in double.
Active Sample Preparation (Insulin with Vehicle & Formulation Agent)
After MeOH evaporation, 115 μl of olive oil and 10 μl Peg are added. Vortex for 2-3 minutes. After vortex, 50 μl of the final mixture are added to the Caco-2 cell well in double.
Control (Insulin with Formulation Agent in Physiological Buffer; No Organic or Non-Aqueous Vehicle Present)
Vortex the mixture for 2-3 minutes. […] Then methanol is evaporated and 125 μl of physiological buffer are added; 50 μl of the above solution are added to the Caco-2 cell well in double.

Caco-2 cells [4] = details: insulin incorporated into liposome according to Sigma preparation, no 18-crown-6
Procedure: Liposomes were purchased from Sigma-Aldrich (pre-liposome formulation 8; product No. L3531) and used according to the following procedure. Alternatively, same ingredients were purchased by other suppliers (Avanti), and liposomes were prepared according the procedure indicated by Sigma. Insulin passage was measured by HPLC injection of samples in the receiving chamber.
The organic mixture containing insulin was mixed with the lipid mixture of Sigma, then solvent was evaporated or lyophilized. Water addition generated liposomes that were tested for delivery in Caco-2 cells.

mice = experiment: In vivo insulin delivery in mice by sub-lingual administration, blood glucose decrease; details: dose 1, sublingual
Procedure: Dose 1: 0.5 mg of desalted human insulin with TFA counter-ions (corresponds to 0.4 mg of non treated standard insulin) are mixed with 60 mg of 18-crown-6. […] The final volume is approximately 310 μl.
The final volume is approximately 310 μl.
Mice were treated with 6.5 μl of mixture 1 and 2, respectively. In dose 1, each mouse was treated with approximately 10 μg of desalted human insulin with TFA counter-ions (corresponds to 8 μg of non treated standard insulin). In dose 2, each mouse was treated with approximately 52 μg of desalted human insulin with TFA counter-ions (corresponds to 41.6 μg of non treated standard insulin).
Results: Insulin Delivery is Measured by Blood Glucose Decrease.

## C[C@@H]1C[C@H]2CC[C@H](O2)[C@H](C)C(=O)O[C@@H](C)C[C@@H]2CC[C@@H](O2)[C@@H](C)C(=O)O[C@H](C)C[C@H]2CC[C@@H](O2)[C@H](C)C(=O)O[C@@H](C)C[C@@H]2CC[C@@H](O2)[C@@H](C)C(=O)O1 [Nonactine]
[1]; 0.2 mg Rantes in 300 ul DCM/MeOH 70%/30% + 2.0 mg Nonactine, versus water/acetonitrile standard
  presence of protein in HPLC trace of supernatant: presence of the peptide in similar proportion as per the area of the standard
[1]; 0.2 mg Rantes in 300 ul DCM/MeOH 70%/30% + 2.0 mg Nonactine, vortexed
  appearance of the mixture after addition of Nonactine: clear solution

## Rantes: folded protein Rantes, a chemokine
[1]; 0.2 mg Rantes suspended in 300 ul DCM/MeOH 70%/30%, no Nonactine
  presence of protein in HPLC trace of supernatant: no presence of the protein in the chromatogram

## Insulin: human insulin, previously desalted; with TFA counter-ions in Example 8
[2]
  solubility of insulin in the dose mixture: precipitation of insulin occurred
Caco-2 cells [3]
  insulin passage across Caco-2 cells: does not cross caco-2 cells
Caco-2 cells [4]
  insulin passage through Caco-2 cells: did not result measurable insulin passage
mice; about 10 ug desalted human insulin with 18-crown-6, compared with IP injection
  effect on blood glucose (insulin delivery): close to the effects of IP injection
mice; dose about 7 times the injected control dose
  actual delivery: around 10%
